Broadly, the IC50 is the concentration at which inhibition is half-maximal. High values mean lower potency, low ones higher potency.

The values that follow come from patent US8470556B2, “Nucleic acids that encode antigen binding proteins that bind PAR-2” (Amgen Inc., priority 2007, dated 2013).

One experiment has as its system Sprague Dawley rats. Kind of experiment: Carrageenan paw edema in Sprague Dawley rat (plethysmography). In kind it is in vivo. To be noted: antibodies IP 1.5 mg/rat, indomethacin 5 mg/kg. As for the experimental part:
(§1) This example describes the effects of PAR-2 antibodies on paw edema in an acute AIA model substantially as described previously. Briefly, 6-8 week old Sprague Dawley or Lewis rats (Charles River Laboratories, Wilmington, Mass.) were injected subcutaneously (SC) in the plantar region of the hind paw with 1% lambda carrageenan in one hind paw and control (saline) in the other. Blocking PAR-2 monoclonal antibody (1A1) or control (positive or negative control; see footnotes to Table 4) was administered intraperitoneally (IP) eighteen hours prior to adjuvant injection at 1.5 mg/rat (approximately 8-10 mg/kg), swelling was then measured by plethysomgraphy at selected time points. Data were expressed as volume of water in milliliters (mL) displaced per paw versus baseline measurements for that paw.

For experiment [1], the system named is Lewis rats. In words: Acute adjuvant-induced arthritis (C/K) model, knee joint thickness. It is filed as in vivo. The note with it: 0 Hr; Lewis rat; group mean ± SEM. As to the method: This example describes acute and chronic models of arthritis. In both models, animals are anesthetized, for example by Ketamine/Xylazine mixture (mouse mix or rat mix, respectively) or isoflurane for all intraarticular (IA), periarticular (PA) injections or intradermal (ID) injections.
Joint injections, IA or PA, are targeted at either knees or hind limb paws. PA injections are equally divided across four sites surrounding the joint of interest. Paw injections are administered ID into the plantar area of the hind paw. To serve as an internal control, one knee or hind-limb paw is injected with vehicle alone or sterile PBS. Preparation of the injection area includes shaving the joint area after animals are anesthetized, and scrubbing with an iodine solution followed by an alcohol disinfectant. All articular injections are given with a 30-gauge needle or equivalent, and when needed by a gastight (i.e., Hamilton) syringe, for small injection volumes (i.e. 10 microL).
For induction of acute AIA (aAIA), animals are injected on day zero (D0) with 1-4% lambda-carrageenan and 1-4% kaolin (C/K) by IA injection in saline. Concentrations of both compounds are dependent on intended disease severity. Total injection volumes for the inducing agent are between 10-20 microL for mice and 60-80 microL for rat. Both concentration and injection volume are consistent with published methodologies (J Clin Invest. 2003; 111(1):35-41, and J Pharmacol Exp Ther. 2006; 316(3):1017-24). Alternatively, specific PAR-2 peptide agonists, or other activators of inflammation (such as trypsin, or human beta-tryptase [J Clin Invest. 2003; 111(1):35-41, J Pharmacol Exp Ther. 2006; 316(3):1017-24, J Pharmacol Sci. 2005 97(1):38-42, and Br J Pharmacol. 1999 127(5):1083-90]) or the equivalent, may be used. Concentrations used are selected for intended disease severity, and total injection volumes are appropriate to the animal being injected.
For both acute and chronic AIA studies, caliper measurements of joint diameter are taken of all joints of interest prior to any injection. Tracking of disease may include caliper measurements of joint diameter as well as flexible tape measurements of joint circumference, and visual scoring. Alternative methods (i.e., use of a plethysmometer) may also be used. Severity of cAIA is scored by one or both of the criteria shown below:
In this manner, 6-8 week old Lewis rats were injected with C/K plus treatment (or control) in the left knee, and negative control in each right knee, as for the acute model. Joint thickness was measured at set time points after treatment, using an average of three caliper readings. The change in thickness of the left knee as compared to the right knee was expressed as percent change, and is shown in Table 3 below.

The target of experiment [2] is T1, N-terminal PAR-2/Fc (full length and truncated) (Homo sapiens, UniProt P55085).
T1 construct: made in house; host or cells: CHO cells (10% FCS for uncleaved; serum-free for clipped)
Kind of experiment: Western blot, binding to uncleaved versus clipped N-terminal PAR-2/Fc. To be noted: for Binding to Cleavage Site Down stream: downstream binder binds both full length and truncated PAR-2-Fc. The text has this:
N-terminal PAR-2/Fc polypeptide (SEQ ID NO:6) is expressed in suitable mammalian cells such as CHO cells. Expression supernatant from CHO expression cells cultured in serum-free media contain a CHO cell trypsin-like serine protease that cleaves PAR-2/Fc at the activation Arg-Ser bond, generating the “clipped” version of the PAR-2/Fc polypeptide. CHO expression cells cultured in 10% fetal calf serum (which contains normal levels of plasma proteinase inhibitors at concentrations far in excess of the concentration of the CHO cell trypsin-like serine protease) express uncleaved N-terminal PAR-2/Fc in culture supernatants. Both clipped and uncleaved proteins are purified using methods that are suitable for isolation and purification of proteins comprising an Fc regions (for example, using a MabSelect™ resin systems, from GE Healthcare, Piscataway, N.J.)). The resultant purified Fc-constructs are analyzed by amino terminal sequence analysis (Edman degradation), size exclusion chromatrography, absorbance spectral scan, and mass spectroscopy, as needed.
To analyze binding to uncleaved versus cleaved PAR-2, various amounts of purified uncleaved and clipped N-terminal PAR2-Fc are subjected to SDS-PAGE using 8-16% polyacrylamide gradient gels (Novex gels, Invitrogen Life Technologies) in a Tris-Glycine buffer system. Gel lanes containing See Blue standards (Novex, Invitrogen Life Technologies) for molecular weight identification are also included. Following electrophoresis, proteins are transferred from gels onto nitrocellulose membranes using a Novex XCell II Blot Module (Invitrogen Life Technologies). Membranes are blocked with 1:1, Odyssey blocking buffer, OBB, (LI-COR Biosciences):TBS (Tris Buffer Saline) overnight at 4 C with shaking. Antibodies to be analyzed are diluted in 1:1 OBB:TBS at a desired final concentration for 1 hr at room temperature. Membranes are washed extensively with 0.1% Tween 20 in TBS (3-4 changes of 100 ml over ˜1 hr). Membranes are then exposed to the appropriate secondary antibody-Alexa680 (Molecular Probes, Invitrogen Life Technologies) conjugate (goat anti-rabbit IgG, or goat anti-mouse IgG) diluted 1:5000 in 1:1 (OBB:TBS) for 1 hr at room temperature. Membranes are washed as described above, and if desired, analyzed using a LI-COR Odyssey Infrared Imaging System (LI-COR Biosciences).
(§2) Several PAR-2 antibodies were tested in different assay formats; Table 2 summarizes the results. IC50 values were determined in a FLIPR assay for Ca2+ mobilization described previously; binding to the upstream region of the cleavage site versus the downstream region of the cleavage site was determined using the Western blot assay described previously.

For experiment [3], the system named is Lewis rats. Kind of experiment: Carrageenan paw edema in Lewis rat (plethysmography). To be noted: IP 18 h prior to carrageenan, 1.5 mg/rat. It is filed as in vivo. As for the experimental part: as §1
The target in a further experiment is T2, PAR-2 (Homo sapiens, UniProt P55085).
T2 sequence (P55085 26-397): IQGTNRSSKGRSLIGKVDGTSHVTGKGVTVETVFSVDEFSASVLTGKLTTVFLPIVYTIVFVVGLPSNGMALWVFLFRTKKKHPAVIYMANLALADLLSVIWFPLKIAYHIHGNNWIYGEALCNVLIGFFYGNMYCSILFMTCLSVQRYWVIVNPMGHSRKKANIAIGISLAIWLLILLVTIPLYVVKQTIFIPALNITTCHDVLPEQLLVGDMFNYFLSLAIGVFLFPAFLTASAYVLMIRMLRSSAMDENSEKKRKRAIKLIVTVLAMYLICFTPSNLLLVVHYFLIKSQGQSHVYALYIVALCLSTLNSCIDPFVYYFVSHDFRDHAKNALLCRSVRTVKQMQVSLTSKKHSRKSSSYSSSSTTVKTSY
In words: FLIPR assay for Ca2+ mobilization. In kind it is cell-based.
Text: Hybridoma clones thus generated are screened for reactivity with PAR-2. Initial screening of hybridoma supernatants may utilize a peptide ELISA, a whole cell ELISA and/or a cell-based assay suitable for high-throughput screening (fluorometric microvolume assay technology or FMAT, substantially as described by Fiscella, et al., Nature Biotechnology 21:302-307; 2003). Hybridomas that are positive in this screening method may be further cultured to provide larger amounts of antibody, which can then be purified as described below and screened by additional cell-based assay(s) (for example, a flash plate assay using cells co-expressing apoaequorin, a Ca2+-sensitive photoprotein, substantially as described by Le Poul et al., J. Biomol. Screen. 7(1):57-65; 2002, and PAR-2), or a fluorometric imaging plate reader (FLIPR) assay, which is used to determine changes in intracellular Ca2+ levels, substantially as described in S. Pitchford, Genetic Engineering News vol. 18, Number 15 (1998) and/or Sullivan et al., Methods in Molecular Biology vol. […]
as §2
A general note: Calcium flux is commonly read through the fluorescence of an indicator in the cells.

T1 sequence (P55085 with tags, fused parts or gaps limits assumed): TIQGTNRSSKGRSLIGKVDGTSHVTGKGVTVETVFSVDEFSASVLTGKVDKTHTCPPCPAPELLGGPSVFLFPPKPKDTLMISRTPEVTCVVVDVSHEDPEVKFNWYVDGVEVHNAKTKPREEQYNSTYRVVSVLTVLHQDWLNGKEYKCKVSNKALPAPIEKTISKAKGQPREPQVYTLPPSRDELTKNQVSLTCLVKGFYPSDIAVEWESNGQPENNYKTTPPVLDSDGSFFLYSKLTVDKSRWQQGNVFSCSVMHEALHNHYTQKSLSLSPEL

On to `COc1ccc2c(c1)c(CC(=O)O)c(C)n2C(=O)c1ccc(Cl)cc1` [Indomethacin, reference compound], for which the “Paw Edema, volume of water displaced per paw versus baseline” value (“Paw Edema … per paw versus baseline” below) in the experiment with Sprague Dawley rats (0 Hr) was found to be 0.00 ± 0.00 mL; with Sprague Dawley rats (2 Hr), 0.26 ± 0.22 mL; in the experiment with Sprague Dawley rats (4 Hr) it was 0.28 ± 0.08 mL; in the experiment on Sprague Dawley rats (6 Hr), 0.49 ± 0.16 mL.

For the molecule SLIGRL [reference compound], in the experiment on Lewis rats [1], the “change in thickness of the left knee as compared to the right knee, percent change” value is recorded as 0.00 ± 0.00%.

B1: 1C7: anti-PAR-2 monoclonal antibody; heavy SEQ ID NO: 17, light SEQ ID NO: 19 (antibody, listed as Homo sapiens, V domains shown)
VH: EVQLVQSGAEVKKPGESLKISCKGSGYSFTSYWIGWVRQMPGKGLEWMGIIYPGDSDTRYSPSFQGQVTISADKSIRTAYLQWSSLKASDTAMYYCARHKGITGTTFYYDYGMDVWGQGTTVTVSS
VL: SYELTQPPSVSVSPGQTARITCSGEALPKQYASWYQQKPGQAPVLVIYKDSERPSGIPERFSGSSSGTTVTLTISGVQAEDEADYYCQSADSNGAYVFGTGTKVTVL
Consider B1, for which the “Binding to Cleavage Site Up stream” value in experiment [2] (upstream binder binds only full-length PAR-2/Fc) is recorded as “xxx”.

B2: 2C6: binding non-blocking anti-PAR2 mAb; heavy SEQ ID NO: 23, light SEQ ID NO: 25 (antibody, listed as Homo sapiens, V domains shown)
VH: QVQLVQSGAEVKKPGASVKVSCKASGYTFTGYFFHWVRQAPGQGLEWVGWINPNSGATHFAQKFQGRVTMTRDTSISTAYMELSRLRSDDTAVYYCARDGSNWNRDYGMDVWGQGTTVTVSS
VL: QSVLTQPPSASGTPGQRVTISCSGSSSNIGINHVYWYQQLPGTAPKIFIYRNNQRPSGVPDRFSGSKSGTSASLAISGLRSEDEADYYCAVWDDSLSGVVFGGGTKLTVLG
Take B2: the “Binding to Cleavage Site Down stream” value in experiment [2] is reported as “xx”. Besides, the “Paw Edema … per paw versus baseline” value with Lewis rats [3] (0 Hr) is 0.00 ± 0.00 mL; in the experiment with Lewis rats [3] (2 Hr) it was 0.22 ± 0.02 mL; with Lewis rats [3] (4 Hr), 0.22 ± 0.05 mL; in the experiment with Lewis rats [3] (6 Hr), 0.32 ± 0.06 mL; with Lewis rats [3] (8 Hr) it was 0.51 ± 0.11 mL; in the experiment with Sprague Dawley rats (0 Hr), 0.00 ± 0.00 mL. The “Paw Edema … per paw versus baseline” value in the experiment with Sprague Dawley rats (2 Hr) is 0.57 ± 0.08 mL; with Sprague Dawley rats (4 Hr) it was 1.06 ± 0.16 mL; in the experiment with Sprague Dawley rats (6 Hr), 1.13 ± 0.08 mL. Besides, the IC50 in the experiment with PAR-2 was greater than 1000 nM.

B3: 9B12: anti-PAR-2 monoclonal antibody; heavy SEQ ID NO: 27, light SEQ ID NO: 29 (antibody, listed as Homo sapiens, V domains shown)
VH: QVQLVESGGGVVQPGRSLRLSCAASGFTFSSYGMHWVRQAPGKGLEWVAVIWYDGSNKYYADSVKGRFTISRDNSKNTLYLQMNSLRAEDTAVYYCARDLGAAAGTGFDYWGQGTLVTVSS
VL: QSVLTQPPSVSAAPGQKVTISCSGSSSNIGNNYVSWYQQLPGTAPKLLIYDNNKRPSGIPDRFSGSKSGTSATLGITGLQTGDEADYYCGTWDSSLSAGVVFGGGTKLTVL
As for B3, the “Binding to Cleavage Site Down stream” value in experiment [2] was “xx”. This molecule also displayed an IC50 with PAR-2 greater than 1000 nM.
